Reference: patent US20180086836A1 (GLENMARK PHARMACEUTICALS S A, published 2018)

Columns and labels:
hsCCR6/mmECL3 = molecular target: T1, hsCCR6/mmECL3 (human/mouse hybrid, UniProt P51684 1-374); assay: flow cytometry on transfected cells (Human Nter, only loop 3 drawn black as murine), 10 µg/ml, PE-labelled secondary antibody
T1 construct: also called third mutant; pT1-hsCCR6/mmECL3
T1 chain: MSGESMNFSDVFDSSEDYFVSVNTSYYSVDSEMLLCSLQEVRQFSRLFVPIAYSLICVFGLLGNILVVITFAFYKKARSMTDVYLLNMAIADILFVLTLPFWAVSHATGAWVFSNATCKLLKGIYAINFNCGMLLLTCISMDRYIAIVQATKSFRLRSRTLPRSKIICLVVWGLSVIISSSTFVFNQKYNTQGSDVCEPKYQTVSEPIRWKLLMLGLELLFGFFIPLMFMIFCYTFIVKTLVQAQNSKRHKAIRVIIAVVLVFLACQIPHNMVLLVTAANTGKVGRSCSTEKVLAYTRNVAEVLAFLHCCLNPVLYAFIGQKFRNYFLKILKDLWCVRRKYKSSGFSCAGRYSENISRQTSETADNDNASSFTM
Protocol: (§1) Binding of the chimeric 4H11 antibody to human/mouse CCR6 hybrid constructs was evaluated by flow cytometry. Human/mouse CCR6 transfectants were counted and 2×10⁵ cells were incubated with 10 μg/ml of chimeric 4H11 antibody. Binding activity of 4H11 was detected with anti-human IgG-PE. To evaluate good expression of the human/mouse chimera on cells, two commercial antibodies directed against human and mouse CCR6 were used. Histogram plots show the geometric mean of fluorescence intensity (Y-axis) measured by flow cytometry
(§2) Binding of MAb to the surface of CCR6 transfected CHO cells was assessed using flow cytometry. 2×10⁵ cells were distributed in a 96 well V bottom plate and centrifuged for three minutes at 1300 rpm. Cells were collected and incubated with the appropriate mAb at a final concentration of 10 μg/ml in a volume of 50 μl in FACS buffer. Cells were incubated for 30 minutes on ice, washed twice and resuspended in 50 μl of PE-labelled secondary antibody diluted at 1/200 in FACS buffer. Cells were incubated for 15 minutes on ice, washed once, resuspended in 400 μl of FACS buffer and analyzed on the FACS instrument (Cyan, Beckman Coulter) in channel FL-2.

hsCCR6/mmECL1 = molecular target: T2, hsCCR6/mmECL1 (human/mouse hybrid, UniProt P51684 1-374); assay: flow cytometry on transfected cells (Human Nter, Murine loop 1, Human loops 2 and 3), 10 µg/ml, PE-labelled secondary antibody
T2 construct: also called first mutant; pT1-hsCCR6/mmECL1
T2 chain: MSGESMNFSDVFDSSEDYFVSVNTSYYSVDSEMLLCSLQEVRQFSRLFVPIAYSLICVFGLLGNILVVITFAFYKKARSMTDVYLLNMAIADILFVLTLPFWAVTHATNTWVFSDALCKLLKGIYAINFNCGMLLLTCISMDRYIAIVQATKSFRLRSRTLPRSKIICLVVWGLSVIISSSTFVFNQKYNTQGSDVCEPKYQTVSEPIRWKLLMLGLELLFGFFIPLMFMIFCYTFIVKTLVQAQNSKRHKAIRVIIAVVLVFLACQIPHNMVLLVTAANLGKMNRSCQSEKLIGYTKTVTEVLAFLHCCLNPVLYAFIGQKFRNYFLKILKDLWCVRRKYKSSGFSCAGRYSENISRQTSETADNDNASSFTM
Protocol: as §1, §2

mouse CCR6 = molecular target: T3, mouse CCR6 (mouse, UniProt O54689 1-367); assay: not given; premise of the human/mouse hybrid mapping
T3 construct: also called mmCCR6; murine CCR6
T3 sequence: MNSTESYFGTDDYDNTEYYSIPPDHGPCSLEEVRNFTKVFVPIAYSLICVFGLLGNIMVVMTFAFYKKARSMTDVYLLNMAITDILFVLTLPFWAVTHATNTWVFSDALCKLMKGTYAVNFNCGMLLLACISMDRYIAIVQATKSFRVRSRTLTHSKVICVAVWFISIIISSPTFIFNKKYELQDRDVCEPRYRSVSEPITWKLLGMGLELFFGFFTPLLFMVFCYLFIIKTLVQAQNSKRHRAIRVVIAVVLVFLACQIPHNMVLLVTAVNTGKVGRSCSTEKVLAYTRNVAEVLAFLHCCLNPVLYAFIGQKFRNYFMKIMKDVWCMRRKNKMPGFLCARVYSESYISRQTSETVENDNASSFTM

hsCCR6/mmECL2 = molecular target: T4, hsCCR6/mmECL2 (human/mouse hybrid, UniProt P51684 1-374); assay: flow cytometry on transfected cells (Human Nter, only loop 2 drawn black as murine), 10 µg/ml, PE-labelled secondary antibody
T4 construct: also called second mutant; pT1-hsCCR6/mmECL2
T4 chain: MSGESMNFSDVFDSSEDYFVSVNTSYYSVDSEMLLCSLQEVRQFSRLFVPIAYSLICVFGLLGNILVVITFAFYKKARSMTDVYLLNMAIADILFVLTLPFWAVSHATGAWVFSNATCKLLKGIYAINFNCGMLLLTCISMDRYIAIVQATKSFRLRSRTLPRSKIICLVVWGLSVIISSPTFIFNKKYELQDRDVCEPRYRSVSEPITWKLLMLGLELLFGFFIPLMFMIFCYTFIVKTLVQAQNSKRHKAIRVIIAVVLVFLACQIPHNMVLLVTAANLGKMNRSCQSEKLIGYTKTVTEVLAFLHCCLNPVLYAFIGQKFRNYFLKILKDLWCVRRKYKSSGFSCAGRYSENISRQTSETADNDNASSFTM
Protocol: as §1, §2

mmCCR6/hsN-term = molecular target: T5, mmCCR6/hsN-term (human/mouse hybrid); assay: flow cytometry on transfected cells (Human Nter, Murine loops 1-3), 10 µg/ml, PE-labelled secondary antibody
T5 construct: also called mutant 5; mouse CCR6 receptor containing a human N-terminal region
T5 chain: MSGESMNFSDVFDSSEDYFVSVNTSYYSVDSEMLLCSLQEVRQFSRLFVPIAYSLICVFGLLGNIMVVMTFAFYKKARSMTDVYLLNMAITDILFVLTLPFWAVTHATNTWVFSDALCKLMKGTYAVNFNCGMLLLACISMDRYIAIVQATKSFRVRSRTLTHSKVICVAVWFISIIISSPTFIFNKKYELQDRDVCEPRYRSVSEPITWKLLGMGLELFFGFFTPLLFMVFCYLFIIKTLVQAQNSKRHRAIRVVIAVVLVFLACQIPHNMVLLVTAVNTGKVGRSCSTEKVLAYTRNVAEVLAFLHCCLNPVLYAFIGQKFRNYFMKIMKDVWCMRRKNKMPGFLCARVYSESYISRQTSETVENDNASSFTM
Protocol: as §1, §2

hsCCR6/mmN-term = molecular target: T6, hsCCR6/mmN-term (human/mouse hybrid, UniProt P51684 36-374); assay: flow cytometry on transfected cells (Murine Nter, Human loops 1-3), PE-labelled secondary antibody
T6 construct: also called mutant 4; human CCR6 receptor containing a mouse N-terminal region
T6 chain: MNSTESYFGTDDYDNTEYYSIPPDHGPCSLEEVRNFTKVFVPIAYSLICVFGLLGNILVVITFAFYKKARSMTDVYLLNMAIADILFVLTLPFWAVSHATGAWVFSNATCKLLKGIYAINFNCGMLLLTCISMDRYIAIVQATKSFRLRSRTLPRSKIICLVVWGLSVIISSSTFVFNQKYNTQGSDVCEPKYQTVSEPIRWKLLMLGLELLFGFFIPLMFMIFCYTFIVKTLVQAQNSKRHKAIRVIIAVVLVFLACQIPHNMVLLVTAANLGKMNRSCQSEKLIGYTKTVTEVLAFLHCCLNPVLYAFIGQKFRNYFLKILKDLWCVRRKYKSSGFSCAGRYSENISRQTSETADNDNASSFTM
Protocol: as §1, §2

- binding result (hsCCR6/mmECL3): binds
- binding result (hsCCR6/mmECL1): binds
- binding result (mouse CCR6): no binding
- binding result (hsCCR6/mmECL2): binds
- binding result (mmCCR6/hsN-term): binds
- binding result (hsCCR6/mmN-term): no binding (tested: 10 µg/ml)
B1: chimeric 4H11 antibody (antibody, human IgG1, kappa, V domains shown)
VH: EVKLVESGGGLVQPGGSLKLSCATSGFSFSDYYMYWIRQTPEKRLEWVAYITNGGITYYPDTVKGRFTISRDNAKNTLYLQMSRLRSEDTAMYYCTSPLRGAWFAYWGQGTLVTVSS
VL: DVIMTQSPLSLPVSLGDQASISCRSSQSIVHSNGNTYLEWYLQKPGQSPKLLIYKVSNRFSGVPDRFSGSGSGTDFTLKISRVEAEDLGLYYCFQGSHVPLTFGAGTKLEIKR
notes: also called chimeric 4H11 mAb; 4H11 chimeric antibody
